Test results published in patent US20240343803A1 (SHANDONG SIMCERE BIOPHARMACEUTICAL, published 2024).
Changes are numbered by the printed parent chain.

T1: Fusion protein of extracellular domain of human TIGIT and mouse IgG2a Fc fragment (human TIGIT ECD-mFc) (human)
T1 construct: The entry includes the signal peptide (limits not recoverable) and the mouse IgG2a Fc
T1 chain: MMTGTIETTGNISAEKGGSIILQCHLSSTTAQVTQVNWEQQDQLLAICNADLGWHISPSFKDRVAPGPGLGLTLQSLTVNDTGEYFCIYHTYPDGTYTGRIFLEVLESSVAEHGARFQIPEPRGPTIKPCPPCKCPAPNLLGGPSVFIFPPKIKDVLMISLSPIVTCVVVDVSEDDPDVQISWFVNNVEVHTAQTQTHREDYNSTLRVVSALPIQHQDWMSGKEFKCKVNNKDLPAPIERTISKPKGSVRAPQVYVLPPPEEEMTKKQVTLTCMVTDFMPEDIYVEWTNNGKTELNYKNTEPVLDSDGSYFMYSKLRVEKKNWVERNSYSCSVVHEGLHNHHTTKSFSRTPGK

B1: TIGIT-002-H4L3 (antibody, V domains shown)
VH: EVQLQESGPGLVKPSETLSLTCAVSGYSITSDSWNWIRQPPGKKLEYIGYISYSGNTYYNPSLKSRVTISRDTSKNQFSLKLSSVTAADTAVYYCARLDFSNYGGAVDYWGQGTTVTVSS
VL: DIVMTQSPDSLAVSLGERATINCKASQNVRTAVAWYQQKPGQSPKLMIYSASYRYTGVPDRFSGSGSGTDFTLTISSLQAEDVAVYYCQQYYTTPWTFGGGTKVEIK
notes: Humanized anti-TIGIT antibody
B2: TIGIT-005-H2L1d (antibody, V domains shown)
VH: EVQLVQSGAEVKKPGASVKVSCKASGYAFTNYLIEWVRQAPGQRLEWMGVINPGSGGTNYKEKFKGRVTITADKSSSTAYMELSSLRSEDTAVYYCARGEYFFFDYWGQGTTVTVSS
VL: B1 VL with N28H, R30S, T31N, Q38H, M47L, Y91H, T93N, W96H
notes: Humanized anti-TIGIT antibody with NG-site mutation in VL
B3: TIGIT-006-H5L3 (antibody, V domains shown)
VH: B1 VH with I29M, S33Y, N56R, L98G, F100Y, V107M, D108Y, Y109D
VL: DIVMTQSPDSLAVSLGERATINCRASQGVSTTIAWYQQKPGQSPKLLIYSASYRYTGVPRFSGSGSGTDFTLTISSLQAEDVAVYYCQQYYSSPFTFGGGTKVEIK
notes: Humanized anti-TIGIT antibody
B4: TIGIT-070-H1L1 (antibody, V domains shown)
VH: EVQLVQSGAEVKKPGASVKVSCKASGYTFTNYYMHWVRQAPGQRLEWMGRIDPDSGGSKYNEKFKSRVTITVDKSASTAYMELSSLRSEDTAVYYCAREGHYGFYSDYWGQGTTVTVSS
VL: DIQMTQSPSSLSASVGDRVTITCRVSENIYSYLAWYQQKPGKSPKLLIYNAKTLAEGVPSRFSGSGSGTDFTLTISSLQPEDFATYYCQHHYGNPLTFGPGTKVDIK
notes: Humanized anti-TIGIT antibody

Legend:
[1] = biological target: T2, Fusion protein of extracellular domain of human TIGIT and human IgG1 Fc fragment (human TIGIT ECD-hFc) (human); experiment: blocking of TIGIT ECD-hFc binding to CHO-K1 CD155 cells
T2 construct: The entry includes the signal peptide (limits not recoverable) and the human IgG1 Fc
T2 sequence (chain, as listed by the source limits assumed): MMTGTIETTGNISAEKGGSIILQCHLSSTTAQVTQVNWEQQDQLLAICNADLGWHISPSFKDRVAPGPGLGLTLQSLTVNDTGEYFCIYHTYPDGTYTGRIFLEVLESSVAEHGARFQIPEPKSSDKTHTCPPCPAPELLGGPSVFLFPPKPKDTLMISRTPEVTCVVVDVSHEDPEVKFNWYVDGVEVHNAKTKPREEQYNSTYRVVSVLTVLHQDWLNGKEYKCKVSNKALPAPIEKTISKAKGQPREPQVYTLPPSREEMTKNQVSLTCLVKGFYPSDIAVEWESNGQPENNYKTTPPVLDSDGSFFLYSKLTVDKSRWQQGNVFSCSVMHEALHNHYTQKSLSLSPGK
Procedure, shortened: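 Cell-based ELISA on CHO-K1 CD155 cells, cultured overnight, fixed and blocked with 5% skim milk-PBS. Antibodies were premixed for 0.5 h with human TIGIT ECD-hFc (working concentration 30 ng/mL), then added and held at 37° C for 1.5-2 h. Bound TIGIT was detected with HRP secondary antibody (1:5000, 37° C, 1 h) and TMB, read as OD450 nm. IC50 came from the inhibition curves.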

[2] = biological target: T1, Fusion protein of extracellular domain …; experiment: FACS; blocking of TIGIT ECD-mFc binding to CHO-K1 CD155 cells

Row | Binder | IC50 [1] | IC50 [2]
1 | B1 | 0.354 nM | 0.492 nM
2 | B2 | 0.376 nM | 0.467 nM
3 | B3 | 0.587 nM | 0.458 nM
4 | B4 | 0.502 nM | 0.456 nM
